Test results reported in paper PMC3431386, “Swi1 Associates with Chromatin through the DDT Domain and Recruits Swi3 to Preserve Genomic Integrity” (PLoS ONE, 2012).

Assays:
Assay in all cases: pull-down; anti-FLAG M2 agarose beads bound to Swi1-FLAG (purified from swi3Δ cells) mixed with His6-Swi3 in lysis buffer A (50 mM Tris-HCl pH 8.0, 150 mM NaCl, 0.1% NP-40, 10% glycerol), 1 hour at 4°C, washed three times, Western blotting with anti-FLAG or His6 antibody
Conditions in all cases: both partners purified
[1] = target: T1, full-length Swi1 (1–971)-5FLAG (overexpressed from the nmt1 promoter) (S. pombe, UniProt Q9UUM2 1-971)
T1 construct: also called pREP-Swi1-5FLAG; Swi1-FLAG; source: S. pombe swi3Δ cells, nmt1 promoter, purified on anti-FLAG M2 agarose (500 mM NaCl washes); not shown: 5FLAG, C-terminal, kept
T1 sequence (looked up): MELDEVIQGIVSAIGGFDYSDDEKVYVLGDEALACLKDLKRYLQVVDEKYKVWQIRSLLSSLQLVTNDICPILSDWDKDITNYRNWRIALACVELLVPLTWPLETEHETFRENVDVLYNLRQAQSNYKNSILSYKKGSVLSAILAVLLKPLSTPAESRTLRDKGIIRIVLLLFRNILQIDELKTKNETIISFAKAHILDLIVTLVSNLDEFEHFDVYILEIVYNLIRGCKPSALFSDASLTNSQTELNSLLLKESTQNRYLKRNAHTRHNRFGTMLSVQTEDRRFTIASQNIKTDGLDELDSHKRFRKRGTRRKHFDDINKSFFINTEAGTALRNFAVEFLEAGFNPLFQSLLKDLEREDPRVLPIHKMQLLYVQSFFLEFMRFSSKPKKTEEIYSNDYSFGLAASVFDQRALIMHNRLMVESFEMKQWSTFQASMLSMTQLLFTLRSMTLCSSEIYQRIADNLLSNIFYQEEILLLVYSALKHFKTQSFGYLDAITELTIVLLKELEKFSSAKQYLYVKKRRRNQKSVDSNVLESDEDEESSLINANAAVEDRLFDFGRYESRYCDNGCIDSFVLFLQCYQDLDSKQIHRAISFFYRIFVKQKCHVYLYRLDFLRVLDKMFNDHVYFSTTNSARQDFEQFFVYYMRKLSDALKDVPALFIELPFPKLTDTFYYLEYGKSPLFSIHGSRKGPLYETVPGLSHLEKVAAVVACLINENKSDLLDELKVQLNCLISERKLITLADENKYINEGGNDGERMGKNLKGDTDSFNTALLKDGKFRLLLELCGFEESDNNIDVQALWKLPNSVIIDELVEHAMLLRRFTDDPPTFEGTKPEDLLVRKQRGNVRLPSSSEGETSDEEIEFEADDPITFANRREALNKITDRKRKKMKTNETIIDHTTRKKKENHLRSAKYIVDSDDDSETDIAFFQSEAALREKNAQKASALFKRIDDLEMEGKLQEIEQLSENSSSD

Swi1 (750–971)-5FLAG = target: T2, Swi1 (750–971)-5FLAG (S. pombe, UniProt Q9UUM2 750-971)
T2 construct: also called C-terminal Swi1; Swi1 C-terminal region; source: S. pombe swi3Δ cells, nmt1 promoter, purified on anti-FLAG M2 agarose (500 mM NaCl washes); not shown: 5FLAG, C-terminal, kept
T2 sequence (looked up): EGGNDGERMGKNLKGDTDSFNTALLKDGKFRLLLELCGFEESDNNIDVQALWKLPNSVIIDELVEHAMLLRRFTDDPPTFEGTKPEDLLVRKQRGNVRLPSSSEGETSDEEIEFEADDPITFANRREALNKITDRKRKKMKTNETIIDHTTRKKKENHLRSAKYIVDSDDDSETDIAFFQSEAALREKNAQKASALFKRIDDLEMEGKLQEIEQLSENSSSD

Swi1 (250–550)-5FLAG = target: T3, Swi1 (250–550)-5FLAG (S. pombe, UniProt Q9UUM2 250-550)
T3 construct: Swi1, S. pombe, amino acids 250–550 (contains an NLS and the DDT domain); also called DDT domain-containing region; pREP-Swi1(250–550)-5FLAG; source: S. pombe swi3Δ cells, nmt1 promoter, purified on anti-FLAG M2 agarose (500 mM NaCl washes); not shown: 5FLAG, C-terminal, kept
T3 sequence (looked up): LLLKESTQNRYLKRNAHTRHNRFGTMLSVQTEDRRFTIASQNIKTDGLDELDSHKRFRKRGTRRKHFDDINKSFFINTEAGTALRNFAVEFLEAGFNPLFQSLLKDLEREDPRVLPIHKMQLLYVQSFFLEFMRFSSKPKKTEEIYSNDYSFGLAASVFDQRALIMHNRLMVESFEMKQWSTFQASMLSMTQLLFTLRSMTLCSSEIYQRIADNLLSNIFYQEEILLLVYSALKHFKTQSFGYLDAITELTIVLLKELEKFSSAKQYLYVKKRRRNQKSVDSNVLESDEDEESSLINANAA

Measured: binding result

B1: hexahistidine-tagged Swi3 (His6-Swi3) (natural protein, S. pombe, UniProt O14350 1-181, looked up)
chain: MSTAASDSGVEKLVEENKREEVKKNEEEKEFDLGLEENPDSVKKPRKRLAKFDEERLISENGIPKLRKMMRKVKLKGKGHEAKDLKQLLGMYHIWTHELYPRATFDDSISYLKTLGKHRSVKVRRRGWINEIAVENGSDSNASLFTGPSSNSLVNLTSGDPYVQDTADDAFVAQDNDTQLE
notes: Swi3, S. pombe; swi3 open reading frame in the NdeI/XhoI site of pET28a; also called recombinant Swi3; pET28a-Swi3; source: E. coli BL21(DE3), purified (Ni-NTA)
binds: [1] | Swi1 (750–971)-5FLAG | Swi1 (250–550)-5FLAG
